Results on one molecule are retold here after patent US6566489 (GENERAL HOSPITAL, dated 2003).

The target of this assay is T1, GST alone (UniProt P08515 1-218 = GST).
T1 construct: Negative control
Nature of the assay: pull-down on GST beads, western blot with CS4E. As for the experimental part: Fifteen µl of a 50% slurry of GST-S4BP bound to GST beads were incubated with 10 µg of soluble pMal-syndecan in 0.5 ml of lysis buffer that contained 1% BSA. After incubation for 30 minutes at room temperature with constant mixing, the reaction mixtures were placed on ice and washed 3× with lysis buffer followed by, 3 washes with lysis buffer containing 1 M NaCl. Protein bound to GST-S4BP beads was solubilized in SDS-PAGE buffer, electrophoresed, transferred to an Immobilon-P membrane and analyzed for bound syndecan-4 core protein using the avian specific syndecan-4 polyclonal antibody CS4E (Baciu et al. (1994) *J. Biol. Chem.* 269:696–703).
(In general: In western blotting, separated proteins are transferred to a membrane and probed.)

T1 sequence (P08515 whole entry): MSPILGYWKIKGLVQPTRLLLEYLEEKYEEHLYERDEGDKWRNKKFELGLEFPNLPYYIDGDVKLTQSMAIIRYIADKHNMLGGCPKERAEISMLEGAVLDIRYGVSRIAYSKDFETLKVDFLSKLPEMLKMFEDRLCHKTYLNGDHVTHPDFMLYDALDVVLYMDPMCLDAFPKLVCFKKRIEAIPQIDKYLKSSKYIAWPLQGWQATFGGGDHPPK

B1: pMal/syndecan-4 fusion protein, full length syndecan-4 core protein (S-4) (other, avian, UniProt P49416 20-197, looked up, not shown: large carriers)
chain: ESVRETETMDARWLDNVGSGDLPDDEDIGEFTPHLTSDEFDIDDTSGSGDYSDYDDAIYLTTVDTPAISDNYIPGDTERKMEGEKKNTMLDNEIIPDKASPVEANLSNKISMASTANSSIFERTEVLTALIAGGAVGLLFAVFLILLLVYRMKKKDEGSYDLGKKPIYKKAPTNEFYA
notes: Bacterially expressed, soluble, purified on a maltose column
Consider B1, for which the binding result was “no binding (tested: 10 µg of soluble pMal-syndecan in 0.5 ml)”.
